Results on two substances are retold here after paper PMC3048825.

Usually stoichiometry N stands for a count of units in the complex or per binding partner.

The target of assay [1] is trimerization domain (TD) of human collagen XVIII, XVIII(TD) (human) (UniProt P39060). Kind of assay: cross-linking.
Assay [2] shares this target. Kind of assay: AUC.
Assay [3] concerns the target trimerization domain of human type XV collagen, XV(TD) (human). Kind of assay: SEC. Background: Size exclusion chromatography separates by hydrodynamic size, large species first.

As for “trimerization domain (TD) of human collagen XVIII, XVIII(TD) (from UniProt P39060 1442-1496) (domain or fragment)”, the stoichiometry N came to 3 in assay [1] and 2.98 in assay [2].

“trimerization domain of human type XV collagen, XV(TD) (domain or fragment)”: the stoichiometry N in assay [3] is 3.
